Test results as given in patent publication US20160144003A1 (Scripps Research, published 2016).

What was measured:
[1] = biological target: T1, human GlyRS P234KY mutant (human, UniProt P41250 55-739); experiment: bio-layer interferometry (Octet RED), NRP1-Fc on Protein G biosensors, global 1:1 fit of three concentrations
T1 sequence: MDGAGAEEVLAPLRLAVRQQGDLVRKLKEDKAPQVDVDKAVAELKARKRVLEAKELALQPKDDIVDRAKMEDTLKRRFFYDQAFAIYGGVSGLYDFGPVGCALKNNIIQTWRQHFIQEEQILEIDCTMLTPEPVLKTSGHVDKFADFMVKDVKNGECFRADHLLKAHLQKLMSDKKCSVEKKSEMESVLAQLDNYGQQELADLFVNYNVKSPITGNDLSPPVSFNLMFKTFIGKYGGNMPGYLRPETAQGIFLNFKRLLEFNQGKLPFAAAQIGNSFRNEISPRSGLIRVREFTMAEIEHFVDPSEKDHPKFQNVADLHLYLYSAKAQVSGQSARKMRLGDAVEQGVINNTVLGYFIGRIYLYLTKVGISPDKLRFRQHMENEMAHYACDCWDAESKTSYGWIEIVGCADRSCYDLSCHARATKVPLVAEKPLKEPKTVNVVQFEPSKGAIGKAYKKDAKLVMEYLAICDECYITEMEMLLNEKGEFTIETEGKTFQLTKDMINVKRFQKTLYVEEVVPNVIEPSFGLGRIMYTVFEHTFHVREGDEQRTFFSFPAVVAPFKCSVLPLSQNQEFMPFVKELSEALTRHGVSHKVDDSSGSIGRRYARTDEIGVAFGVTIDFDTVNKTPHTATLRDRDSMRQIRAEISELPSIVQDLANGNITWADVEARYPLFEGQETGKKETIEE

human GlyRS L129P mutant = biological target: T2, human GlyRS L129P mutant (human, UniProt P41250 55-739); experiment: bio-layer interferometry (Octet RED), NRP1-Fc on Protein G biosensors, global 1:1 fit of five concentrations
T2 construct: also called L129P GlyRS; L129P-His; not shown: His tag
T2 sequence: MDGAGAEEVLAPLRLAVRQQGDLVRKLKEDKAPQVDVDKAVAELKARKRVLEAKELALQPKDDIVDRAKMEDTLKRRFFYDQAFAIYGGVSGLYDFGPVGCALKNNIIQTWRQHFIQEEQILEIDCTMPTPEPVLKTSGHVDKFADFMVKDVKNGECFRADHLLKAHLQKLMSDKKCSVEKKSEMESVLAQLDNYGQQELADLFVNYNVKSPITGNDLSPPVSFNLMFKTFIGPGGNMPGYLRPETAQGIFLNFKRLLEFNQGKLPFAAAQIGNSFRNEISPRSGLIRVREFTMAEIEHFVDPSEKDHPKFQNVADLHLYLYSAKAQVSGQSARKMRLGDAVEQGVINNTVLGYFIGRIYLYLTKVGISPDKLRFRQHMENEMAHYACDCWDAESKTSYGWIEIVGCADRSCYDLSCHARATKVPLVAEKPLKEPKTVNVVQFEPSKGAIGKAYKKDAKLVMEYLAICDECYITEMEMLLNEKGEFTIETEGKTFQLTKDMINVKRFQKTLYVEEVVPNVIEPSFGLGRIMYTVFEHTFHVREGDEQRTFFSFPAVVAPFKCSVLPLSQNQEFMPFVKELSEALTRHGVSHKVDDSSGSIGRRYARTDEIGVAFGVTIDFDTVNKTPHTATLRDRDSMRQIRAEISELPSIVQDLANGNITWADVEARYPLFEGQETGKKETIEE
Procedure: FIGS. 15A-15C show the binding affinity between various GlyRS polypeptides and neuropilin-1 (NRP-1). In FIG. 15A, the binding between NRP-1 and GlyRS (wild-type (WT), CMT-associated mutant L129P, and CMT-associated mutant P234KY) at 1 μM was compared by bio-layer interferometry in Octet RED system. No binding was detected between NRP-1 and WT GlyRS, but strong binding was detected between NRP-1 and each of the CMT-associated mutants L129P and P234KY.
The binding constants between GlyRS CMT mutants (L129P and P234KY) and Neuropilin-1 (NRP1) were measured using Octet RED (ForteBio, Inc.). Octet RED utilizes bio-layer interferometry (BLI) technology that enables real-time analysis of protein-protein interactions on the surface of a fiber optic biosensor. The protein of interest is firstly immobilized on the biosensor and then exposed to the protein analyte in solution. The binding of two proteins changes the optical properties of the biosensor, leading to a shift in the wavelength of reflected light. This shift in wavelength allows the measurement of the determination of the binding constant.

Kd [1]: 162 nM | Kd (human GlyRS L129P mutant): 36.8 nM
B1: recombinant neuropilin-1/Fc extracellular domain chimeric protein (R&D systems) (Fc fusion)
chain: FRSDKCGGTIKIENPGYLTSPGYPHSYHPSEKCEWLIQAPEPYQRIMINFNPHFDLEDRDCKYDYVEVIDGENEGGRLWGKFCGKIAPSPVVSSGPFLFIKFVSDYETHGAGFSIRYEIFKRGPECSQNYTAPTGVIKSPGFPEKYPNSLECTYIIFAPKMSEIILEFESFDLEQDSNPPGGVFCRYDRLEIWDGFPEVGPHIGRYCGQKTPGRIRSSSGILSMVFYTDSAIAKEGFSANYSVLQSSISEDFKCMEALGMESGEIHSDQITASSQYGTNWSVERSRLNYPENGWTPGEDSYREWIQVDLGLLRFVTAVGTQGAISKETKKKYYVKTYRVDISSNGEDWITLKEGNKAIIFQGNTNPTDVVFGVFPKPLITRFVRIKPASWETGISMRFEVYGCKITDYPCSGMLGMVSGLISDSQITASNQGDRNWMPENIRLVTSRTGWALPPSPHPYINEWLQVDLGDEKIVRGVIIQGGKHRENKVFMRKFKIAYSNNGSDWKMIMDDSKRKAKSFEGNNNYDTPELRAFTPLSTRFIRIYPERATHSGLGLRMELLGCEVEVPTAGPTTPNGNPVDECDDDQANCHSGTGDDFQLTGGTTVLATEKPTIIDSTIQSEFPTYGFNCEFGWGSHKTFCHWEHDSHAQLRWRVLTSKTGPIQDHTGDGNFIYSQADENQKGKVARLVSPVVYSQSSAHCMTFWYHMSGSHVGTLRVKLHYQKPEEYDQLVWMVVGHQGDHWKEGRVLLHKSLKLYQVIFEGEIGKGNLGGIAVDDISINNHIPQEDCAKPTDLDKKNTEIKIDETGSTPGYEEGKGDKNISRKPGNVLKTLDPI
